Experimental data as given in article PMC12552968, “The RING-finger domain of Arabidopsis RMR functions as an E3 ligase essential for post-Golgi trafficking” (The Journal of Biological Chemistry, 2025).

Biological target: T1, Arabidopsis E2 ubiquitin-conjugating enzyme AtUbc30 (Arabidopsis, UniProt Q9FKT3 1-148)
T1 construct: AtUbc30, Arabidopsis E2 ubiquitin-conjugating enzyme, At5g56150; source: E. coli SoluBL21, purified (GSTrap Sepharose, PreScission cleavage, gel filtration)
Assay: pull-down; AtUbc30 (50 to 60 μM) with equimolar GST, wildtype or I234Y GST-AtRMR1-RING in the presence of GSTrap Sepharose; 30 mM Tris pH 7.5, 150 mM NaCl, 2 mM DTT; 4 h at 4 °C; eluted with 20 mM reduced glutathione; 15% SDS-PAGE, Coomassie blue
Details: both partners purified

T1 sequence (Q9FKT3 whole entry): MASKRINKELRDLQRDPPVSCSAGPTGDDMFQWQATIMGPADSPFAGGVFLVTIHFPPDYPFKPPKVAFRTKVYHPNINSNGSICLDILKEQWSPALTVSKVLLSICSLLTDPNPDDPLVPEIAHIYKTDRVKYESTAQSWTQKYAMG

binding result: binds
B1: GST-tagged RING-H2 domain of Arabidopsis RMR isoform-1 (GST-AtRMR1-RING), wildtype (domain or fragment, UniProt Q9M622 206-283, looked up)
chain: RLDAKLVHTLPCFTFTDSAHHKAGETCAICLEDYRFGESLRLLPCQHAFHLNCIDSWLTKWGTSCPVCKHDIRTETMS
notes: AtRMR1 (receptor-homology-transmembrane-RING-H2 protein 1), Arabidopsis, At5g66160, RING-H2 domain, residues 206-283; The methods tell only the purification of the form with the GST tag cleaved; also called E3; source: E. coli SoluBL21 (pGEX-6p-1), recombinant
